In the supplement of paper PMC12855868:

B1: library; numbered along this chain (parent)
chain: MAAAGGARLLRAASAVLGGPAGRWLHHAGSRAGSSGLLRNRGPGGSAEASRSLSVSARARSSSEDKITVHFINRDGETLTTKGKVGDSLLDVVVENNLDIDGFGACEGTLACSTCHLIFEDHIYEKLDAITDEENDMLDLAYGLTDRSRLGCQICLTKSMDNMTVRVPETVADARQSIDVGKTS

Variants of: B1
Assay: scaled log2 fold change in cell abundance, elesclomol vs control (0 = silent mean, 1 = nonsense mean) (scaled log2 ratio); higher = higher viability under elesclomol (loss of FDX1 cuproptosis function)
Conditions: glucose 10 mM
Description: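 Deep mutational scan of full-length human FDX1: a pooled saturation-mutagenesis ORF library (every residue 2-184 mutated to all 19 amino acids plus stop, and silent codons where available) was expressed by lentivirus in FDX1-knockout ABC1 (14 days) or HEK293T (11 days) cells grown with elesclomol (ES) or DMSO control. Variant abundance came from ORF sequencing. The log2 fold change (ES vs control, mean of duplicates) was centred on the silent-variant mean (0) and scaled to the nonsense-variant mean (1). Higher values mean greater viability under ES, i.e. loss of FDX1 function in cuproptosis.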

[1] = with ABC1 FDX1 KO, elesclomol 5 nM, 14 days
[2] = with HEK293T FDX1 KO, elesclomol 40 nM, 11 days
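Further: variant abundance is its share of total variant reads in each endpoint sample, from next-generation sequencing of the integrated ORF PCR-amplified out of genomic DNA.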

Variant	scaled log2 fold change [1]	scaled log2 fold change [2]
MAAAGGARLLRAASAVLGGPAGRWLHHAGSRAGSSGLLRNRGPGGSAEASRSLSVSARARSSSEDKITVHFINRDGETLTTKGIVGDSLLDVVVENNLDIDGFGACEGTLACSTCHLIFEDHIYEKLDAITDEENDMLDLAYGLTDRSRLGCQICLTKSMDNMTVRVPETVADARQSIDVGKTS [K84I]	0.197	1.03
MAAAGGARLLRAASAVLGGPAGRWLHHAGSRAGSSGLLRNRGPGGSAEASRSLSVSARARSSSEDKITVHFINRDGETLTTKGLVGDSLLDVVVENNLDIDGFGACEGTLACSTCHLIFEDHIYEKLDAITDEENDMLDLAYGLTDRSRLGCQICLTKSMDNMTVRVPETVADARQSIDVGKTS [K84L]	0.349	-0.439
MAAAGGARLLRAASAVLGGPAGRWLHHAGSRAGSSGLLRNRGPGGSAEASRSLSVSARARSSSEDKITVHFINRDGETLTTKGMVGDSLLDVVVENNLDIDGFGACEGTLACSTCHLIFEDHIYEKLDAITDEENDMLDLAYGLTDRSRLGCQICLTKSMDNMTVRVPETVADARQSIDVGKTS [K84M]	0.138	–
MAAAGGARLLRAASAVLGGPAGRWLHHAGSRAGSSGLLRNRGPGGSAEASRSLSVSARARSSSEDKITVHFINRDGETLTTKGNVGDSLLDVVVENNLDIDGFGACEGTLACSTCHLIFEDHIYEKLDAITDEENDMLDLAYGLTDRSRLGCQICLTKSMDNMTVRVPETVADARQSIDVGKTS [K84N]	0.0469	0.28
MAAAGGARLLRAASAVLGGPAGRWLHHAGSRAGSSGLLRNRGPGGSAEASRSLSVSARARSSSEDKITVHFINRDGETLTTKGPVGDSLLDVVVENNLDIDGFGACEGTLACSTCHLIFEDHIYEKLDAITDEENDMLDLAYGLTDRSRLGCQICLTKSMDNMTVRVPETVADARQSIDVGKTS [K84P]	0.11	1.21
MAAAGGARLLRAASAVLGGPAGRWLHHAGSRAGSSGLLRNRGPGGSAEASRSLSVSARARSSSEDKITVHFINRDGETLTTKGQVGDSLLDVVVENNLDIDGFGACEGTLACSTCHLIFEDHIYEKLDAITDEENDMLDLAYGLTDRSRLGCQICLTKSMDNMTVRVPETVADARQSIDVGKTS [K84Q]	0.0208	-0.794
MAAAGGARLLRAASAVLGGPAGRWLHHAGSRAGSSGLLRNRGPGGSAEASRSLSVSARARSSSEDKITVHFINRDGETLTTKGRVGDSLLDVVVENNLDIDGFGACEGTLACSTCHLIFEDHIYEKLDAITDEENDMLDLAYGLTDRSRLGCQICLTKSMDNMTVRVPETVADARQSIDVGKTS [K84R]	-0.138	-0.784
MAAAGGARLLRAASAVLGGPAGRWLHHAGSRAGSSGLLRNRGPGGSAEASRSLSVSARARSSSEDKITVHFINRDGETLTTKGSVGDSLLDVVVENNLDIDGFGACEGTLACSTCHLIFEDHIYEKLDAITDEENDMLDLAYGLTDRSRLGCQICLTKSMDNMTVRVPETVADARQSIDVGKTS [K84S]	0.112	0.32
MAAAGGARLLRAASAVLGGPAGRWLHHAGSRAGSSGLLRNRGPGGSAEASRSLSVSARARSSSEDKITVHFINRDGETLTTKGTVGDSLLDVVVENNLDIDGFGACEGTLACSTCHLIFEDHIYEKLDAITDEENDMLDLAYGLTDRSRLGCQICLTKSMDNMTVRVPETVADARQSIDVGKTS [K84T]	-0.0915	-0.906
MAAAGGARLLRAASAVLGGPAGRWLHHAGSRAGSSGLLRNRGPGGSAEASRSLSVSARARSSSEDKITVHFINRDGETLTTKGVVGDSLLDVVVENNLDIDGFGACEGTLACSTCHLIFEDHIYEKLDAITDEENDMLDLAYGLTDRSRLGCQICLTKSMDNMTVRVPETVADARQSIDVGKTS [K84V]	0.289	-0.902
MAAAGGARLLRAASAVLGGPAGRWLHHAGSRAGSSGLLRNRGPGGSAEASRSLSVSARARSSSEDKITVHFINRDGETLTTKGWVGDSLLDVVVENNLDIDGFGACEGTLACSTCHLIFEDHIYEKLDAITDEENDMLDLAYGLTDRSRLGCQICLTKSMDNMTVRVPETVADARQSIDVGKTS [K84W]	0.191	-0.16
MAAAGGARLLRAASAVLGGPAGRWLHHAGSRAGSSGLLRNRGPGGSAEASRSLSVSARARSSSEDKITVHFINRDGETLTTKGYVGDSLLDVVVENNLDIDGFGACEGTLACSTCHLIFEDHIYEKLDAITDEENDMLDLAYGLTDRSRLGCQICLTKSMDNMTVRVPETVADARQSIDVGKTS [K84Y]	-0.449	0.782
MAAAGGARLLRAASAVLGGPAGRWLHHAGSRAGSSGLLRNRGPGGSAEASRSLSVSARARSSSEDKITVHFINRDGETLTTKGKAGDSLLDVVVENNLDIDGFGACEGTLACSTCHLIFEDHIYEKLDAITDEENDMLDLAYGLTDRSRLGCQICLTKSMDNMTVRVPETVADARQSIDVGKTS [V85A]	0.0788	-0.325
MAAAGGARLLRAASAVLGGPAGRWLHHAGSRAGSSGLLRNRGPGGSAEASRSLSVSARARSSSEDKITVHFINRDGETLTTKGKCGDSLLDVVVENNLDIDGFGACEGTLACSTCHLIFEDHIYEKLDAITDEENDMLDLAYGLTDRSRLGCQICLTKSMDNMTVRVPETVADARQSIDVGKTS [V85C]	-0.197	-0.0853
MAAAGGARLLRAASAVLGGPAGRWLHHAGSRAGSSGLLRNRGPGGSAEASRSLSVSARARSSSEDKITVHFINRDGETLTTKGKDGDSLLDVVVENNLDIDGFGACEGTLACSTCHLIFEDHIYEKLDAITDEENDMLDLAYGLTDRSRLGCQICLTKSMDNMTVRVPETVADARQSIDVGKTS [V85D]	0.12	-0.189
MAAAGGARLLRAASAVLGGPAGRWLHHAGSRAGSSGLLRNRGPGGSAEASRSLSVSARARSSSEDKITVHFINRDGETLTTKGKEGDSLLDVVVENNLDIDGFGACEGTLACSTCHLIFEDHIYEKLDAITDEENDMLDLAYGLTDRSRLGCQICLTKSMDNMTVRVPETVADARQSIDVGKTS [V85E]	-0.055	-0.248
MAAAGGARLLRAASAVLGGPAGRWLHHAGSRAGSSGLLRNRGPGGSAEASRSLSVSARARSSSEDKITVHFINRDGETLTTKGKFGDSLLDVVVENNLDIDGFGACEGTLACSTCHLIFEDHIYEKLDAITDEENDMLDLAYGLTDRSRLGCQICLTKSMDNMTVRVPETVADARQSIDVGKTS [V85F]	0.217	1.05
